Measured values as given in the supplement of paper PMC9876800.

System: peptide library, one residue held at a place counted from the S/T acceptor
Test: relative phosphorylation of the sub-library (ratio to the mean residue at this position); higher = residue favoured
Method in brief: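 Purified recombinant kinases were reacted in 384-well plates with biotinylated degenerate peptide sub-libraries, each having one residue fixed at one position around a central Ser/Thr. The reaction mix contained 50 μM peptide plus 50 μM ATP spiked with γ-32P-ATP and ran for 90 min under kinase-specific conditions. Relative sub-library phosphorylation, taken from densitometry of phosphorimaged streptavidin membrane spots, is a ratio to the mean residue at that position.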

Chain of NIM1K, construct: Full length, human (Q8IY84 whole entry, looked up): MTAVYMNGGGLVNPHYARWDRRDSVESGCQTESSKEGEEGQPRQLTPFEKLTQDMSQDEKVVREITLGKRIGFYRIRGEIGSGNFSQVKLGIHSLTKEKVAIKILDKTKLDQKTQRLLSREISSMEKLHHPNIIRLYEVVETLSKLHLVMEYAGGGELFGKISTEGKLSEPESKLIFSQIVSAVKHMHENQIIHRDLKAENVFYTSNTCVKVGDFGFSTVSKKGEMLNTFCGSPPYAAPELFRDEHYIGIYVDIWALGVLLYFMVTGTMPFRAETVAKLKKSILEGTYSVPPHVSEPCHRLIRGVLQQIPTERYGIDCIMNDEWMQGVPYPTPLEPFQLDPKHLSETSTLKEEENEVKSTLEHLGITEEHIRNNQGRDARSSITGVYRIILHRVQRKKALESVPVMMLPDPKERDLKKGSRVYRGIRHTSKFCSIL
Chain of MAP2K5, construct: Full length, human (Q13163 whole entry, looked up): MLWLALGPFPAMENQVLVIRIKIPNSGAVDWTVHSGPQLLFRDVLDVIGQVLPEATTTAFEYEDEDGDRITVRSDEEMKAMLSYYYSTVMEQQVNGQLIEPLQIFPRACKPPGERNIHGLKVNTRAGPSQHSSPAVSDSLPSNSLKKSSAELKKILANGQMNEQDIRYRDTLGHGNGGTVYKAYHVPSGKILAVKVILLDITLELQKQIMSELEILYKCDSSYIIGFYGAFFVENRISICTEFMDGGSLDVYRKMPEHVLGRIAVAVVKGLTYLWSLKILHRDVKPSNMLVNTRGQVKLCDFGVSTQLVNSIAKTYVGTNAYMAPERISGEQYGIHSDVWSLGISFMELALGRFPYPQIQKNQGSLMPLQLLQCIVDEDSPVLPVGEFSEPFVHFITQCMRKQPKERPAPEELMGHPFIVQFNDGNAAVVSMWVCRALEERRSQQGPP

NIM1K, construct: Full length, human (from UniProt Q8IY84)
relative phosphorylation
Settings	at +1	at +2	at +3	at +4	at -1	at -2	at -3	at -4	at -5
A fixed	1.02	1.1	0.686	0.823	1.14	1.35	0.839	1.14	1.43
D fixed	0.328	0.286	1.08	0.716	0.362	0.331	0.475	0.831	0.765
E fixed	0.455	0.311	0.495	0.844	0.331	0.307	0.502	0.762	0.602
F fixed	1.17	1.55	1.46	0.97	0.571	1.7	0.769	0.709	0.63
G fixed	0.75	0.407	0.548	0.799	3.74	1.27	0.883	1.33	1.12
H fixed	0.924	0.848	1.15	0.801	0.966	1.15	1.06	1.06	1.26
I fixed	0.801	1.32	0.626	1.37	0.503	0.705	0.681	0.749	0.778
K fixed	0.686	0.545	0.552	1.12	1.37	1.03	1.21	1.57	1.73
L fixed	0.975	1.52	1.15	1.98	0.818	0.932	0.84	0.958	0.869
M fixed	1.83	1.3	0.82	1.31	0.926	0.997	0.966	0.956	0.781
N fixed	0.722	0.496	1.12	0.697	0.842	1.06	0.797	1.25	1.2
P fixed	0.376	0.51	0.404	0.722	0.76	0.361	0.823	0.87	0.852
Q fixed	2.16	0.607	0.549	0.795	1.05	0.737	0.887	0.935	0.868
R fixed	1.05	0.633	0.666	1.24	1.44	1.38	3.47	1.41	1.41
V fixed	1.2	1.48	0.645	1.42	0.693	0.888	0.872	0.712	0.917
W fixed	1.16	2.06	3.85	0.717	0.709	1.7	0.97	0.863	1.04
Y fixed	1.39	2.04	1.19	0.686	0.775	1.1	0.957	0.884	0.758
pThr fixed	0.564	0.357	0.387	0.81	0.341	0.522	0.655	0.711	0.72
pTyr fixed	0.365	0.345	0.367	0.644	0.459	0.475	0.619	0.629	0.543

CDK5, construct: Full length, human (from UniProt Q00535)
relative phosphorylation
Settings	at +1	at +2	at +3	at +4	at -1	at -2	at -3	at -4	at -5
A fixed	0.423	1.13	0.791	1.07	1.16	1.08	1.05	1.15	1.22
D fixed	0.262	0.357	0.165	0.478	0.753	0.717	0.92	1.1	1.24
E fixed	0.305	0.516	0.12	0.512	0.747	0.842	1.02	0.993	1.03
F fixed	0.227	0.765	0.485	0.679	0.557	0.765	0.65	0.801	0.925
G fixed	1.25	1.06	0.809	1.56	1.86	1.21	1.47	1.47	1.35
H fixed	0.344	1.19	3.07	1.27	0.925	1.03	1.12	1.05	1.03
I fixed	0.261	0.87	0.444	0.828	0.346	0.646	0.742	0.642	0.63
K fixed	0.374	2.44	3.21	1.92	1.49	0.85	1.05	1.07	1.26
L fixed	0.278	0.831	0.536	0.754	0.697	0.958	0.673	0.689	0.625
M fixed	0.382	0.869	0.542	0.967	0.995	1.01	0.894	0.86	0.725
N fixed	0.569	0.828	1.08	0.81	1.17	1.01	1.17	1	0.916
P fixed	10.5	0.464	0.63	0.829	1.49	2.71	1.8	1.61	1.45
Q fixed	0.492	0.971	0.636	1.05	1.24	0.998	1.06	0.952	0.979
R fixed	0.373	2	3.14	1.57	1.48	0.788	1.06	0.988	1.07
V fixed	0.377	0.926	0.397	0.904	0.568	0.788	0.75	0.695	0.757
W fixed	0.285	0.763	0.463	0.957	0.722	0.786	0.811	1.1	0.766
Y fixed	0.258	1.01	0.49	0.836	0.805	0.817	0.763	0.825	1.01
pThr fixed	0.518	0.434	0.412	0.38	0.408	0.721	0.956	0.995	0.939
pTyr fixed	0.513	0.44	0.344	0.453	0.548	0.748	0.822	0.835	1.01

MAP2K5, construct: Full length, human (from UniProt Q13163)
relative phosphorylation
Settings	at +1	at +2	at +3	at +4	at -1	at -2	at -3	at -4	at -5
A fixed	0.719	0.806	0.742	0.876	0.985	1.01	1.02	0.982	0.924
D fixed	0.453	0.477	0.592	0.598	0.918	0.931	0.998	0.992	0.898
E fixed	0.47	0.454	0.583	0.62	0.73	0.732	0.889	0.982	0.828
F fixed	1.12	0.912	1.29	0.97	0.899	1.75	0.962	1.08	1.2
G fixed	0.703	0.748	0.949	0.998	1.19	0.942	1.16	1.08	0.963
H fixed	0.886	2.3	1.1	1.07	1.15	1.01	1.02	1.09	1.17
I fixed	1.52	0.717	0.919	0.898	0.706	0.696	0.744	0.74	0.856
K fixed	0.872	1.29	1.14	1.49	1.14	0.83	1.08	1.11	1.09
L fixed	1.2	0.711	1.01	0.836	1.07	0.841	0.846	0.783	0.884
M fixed	1.62	0.928	1.06	0.956	1.11	0.866	0.943	0.944	0.889
N fixed	0.836	0.935	0.963	0.891	1.08	0.855	0.906	0.947	0.894
P fixed	0.636	0.604	0.714	1.06	0.809	0.901	1.07	0.902	0.894
Q fixed	0.839	0.918	0.854	1.09	0.969	0.841	0.817	0.834	0.828
R fixed	1.1	1.53	1.36	1.43	1.5	1.23	1.54	1.24	1.19
V fixed	1.2	0.736	0.781	0.774	0.711	0.771	0.684	0.791	0.843
W fixed	1.7	1.36	1.64	1.24	0.875	1.37	1.18	1.38	1.34
Y fixed	1.14	1.57	1.3	1.21	1.17	1.43	1.14	1.12	1.32
pThr fixed	0.902	0.728	0.733	0.792	0.844	1.07	1.34	1.17	1.29
pTyr fixed	0.576	0.485	0.723	0.57	0.974	1.3	1.08	0.835	1.08
